Measurements taken from article PMC5401896 (2017).

Assays:
CD20 [1] = biological target: T1, CD20 (Homo sapiens, UniProt P11836); test: real-time cell binding (bivalent, Daudi)
T1 chain: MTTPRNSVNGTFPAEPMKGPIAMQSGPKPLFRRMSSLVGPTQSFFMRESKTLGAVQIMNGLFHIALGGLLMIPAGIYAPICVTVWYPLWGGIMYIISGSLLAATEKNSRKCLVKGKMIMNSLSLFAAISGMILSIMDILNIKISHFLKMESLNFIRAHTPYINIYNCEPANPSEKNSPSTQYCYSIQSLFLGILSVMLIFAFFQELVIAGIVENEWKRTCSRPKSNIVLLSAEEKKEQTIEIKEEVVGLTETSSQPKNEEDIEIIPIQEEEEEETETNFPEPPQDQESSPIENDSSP

CD20 [2] = biological target: T1, CD20; test: real-time cell binding (one-to-one, Ramos)
CD20 [3] = biological target: T1, CD20; test: real-time cell binding (one-to-two, Daudi)

B1: Rituximab (antibody, V domains shown)
VH: QVQLQQPGAELVKPGASVKMSCKASGYTFTSYNMHWVKQTPGRGLEWIGAIYPGNGDTSYNQKFKGKATLTADKSSSTAYMQLSSLTSEDSAVYYCARSTYYGGDWYFNVWGAGTTVTVSA
VL: QIVLSQSPAILSASPGEKVTMTCRASSSVSYIHWFQQKPGSSPKPWIYATSNLASGVPVRFSGSGSGTSYSLTISRVEAEDAATYYCQQWTSNPPTFGGGTKLEIK
Kd (CD20 [1]): 7.8 nM
Kd (CD20 [2]): 0.7 nM
Kd (CD20 [3]): 0.2 nM
